In this assay the target is T1, integrin αVβ5 (Homo sapiens, UniProt P06756).
T1 chain 1: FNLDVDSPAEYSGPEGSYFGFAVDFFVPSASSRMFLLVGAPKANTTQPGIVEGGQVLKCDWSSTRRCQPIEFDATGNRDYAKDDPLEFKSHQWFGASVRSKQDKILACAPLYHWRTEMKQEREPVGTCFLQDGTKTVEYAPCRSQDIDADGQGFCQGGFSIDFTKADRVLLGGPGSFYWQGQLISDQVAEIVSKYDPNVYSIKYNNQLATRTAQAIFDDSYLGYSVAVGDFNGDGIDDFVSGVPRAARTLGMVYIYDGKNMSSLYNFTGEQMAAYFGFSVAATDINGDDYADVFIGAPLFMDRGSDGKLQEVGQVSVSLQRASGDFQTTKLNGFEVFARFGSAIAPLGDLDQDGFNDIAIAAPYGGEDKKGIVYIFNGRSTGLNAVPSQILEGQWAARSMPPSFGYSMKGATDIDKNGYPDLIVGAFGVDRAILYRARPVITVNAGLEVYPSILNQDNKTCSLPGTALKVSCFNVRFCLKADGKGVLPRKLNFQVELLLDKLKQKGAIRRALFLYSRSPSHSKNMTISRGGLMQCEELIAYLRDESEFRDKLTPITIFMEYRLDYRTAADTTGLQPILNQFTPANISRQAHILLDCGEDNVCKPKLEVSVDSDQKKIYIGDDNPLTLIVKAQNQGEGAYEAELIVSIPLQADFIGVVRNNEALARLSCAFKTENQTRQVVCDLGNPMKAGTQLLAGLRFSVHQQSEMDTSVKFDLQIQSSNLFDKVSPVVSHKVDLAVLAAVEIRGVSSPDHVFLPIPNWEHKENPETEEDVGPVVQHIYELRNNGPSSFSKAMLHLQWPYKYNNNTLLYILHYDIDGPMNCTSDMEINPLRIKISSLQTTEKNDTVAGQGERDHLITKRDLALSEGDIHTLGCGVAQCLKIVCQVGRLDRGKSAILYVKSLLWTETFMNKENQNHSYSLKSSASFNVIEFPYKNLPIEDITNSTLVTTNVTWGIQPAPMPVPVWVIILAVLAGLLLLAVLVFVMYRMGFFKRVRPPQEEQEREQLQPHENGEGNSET
T1 chain 2: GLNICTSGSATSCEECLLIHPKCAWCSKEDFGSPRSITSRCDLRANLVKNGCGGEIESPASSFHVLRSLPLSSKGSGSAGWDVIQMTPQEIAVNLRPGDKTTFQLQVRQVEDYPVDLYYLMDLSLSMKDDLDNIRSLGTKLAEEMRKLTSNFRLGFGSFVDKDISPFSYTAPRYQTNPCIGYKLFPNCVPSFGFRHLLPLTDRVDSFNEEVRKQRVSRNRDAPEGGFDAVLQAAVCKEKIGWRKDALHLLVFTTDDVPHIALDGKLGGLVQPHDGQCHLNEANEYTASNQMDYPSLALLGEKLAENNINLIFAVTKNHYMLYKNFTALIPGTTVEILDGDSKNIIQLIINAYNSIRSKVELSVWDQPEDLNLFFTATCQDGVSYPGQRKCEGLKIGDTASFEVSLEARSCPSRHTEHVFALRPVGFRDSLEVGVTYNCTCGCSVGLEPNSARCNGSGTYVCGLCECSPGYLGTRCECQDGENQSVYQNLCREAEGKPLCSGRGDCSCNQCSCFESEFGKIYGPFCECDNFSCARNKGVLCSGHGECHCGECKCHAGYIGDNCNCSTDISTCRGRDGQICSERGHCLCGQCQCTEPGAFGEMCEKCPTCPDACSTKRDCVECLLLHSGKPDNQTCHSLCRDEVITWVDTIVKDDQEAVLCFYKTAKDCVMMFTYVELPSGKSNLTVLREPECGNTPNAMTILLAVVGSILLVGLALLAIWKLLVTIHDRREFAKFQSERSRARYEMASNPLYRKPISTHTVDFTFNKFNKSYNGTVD
As to the kind of experiment: solid-phase binding assay (fluorescent immunoassay).

B1: PilY1 532-1163 (protein)
chain: AGDLTRYSLTTQDKATVQTKLWSAQSILDAMPNGGAGRKIMMAGSGTSGLKEFTWGSLSADQQRQLNRDPDRNDVADTKGQDRVAFLRGDRSKENSDNFRTRNSILGDIINSSPATVGKAQYLTYLAQPIEPSGNYSTFAEAQKTRAPRVYVGANDGMLHGFDTDGNETFAFIPSAVFEKLHKLTARGYQGGAHQFYVDGSPVVADAFFGGAWHTVLIGSLRAGGKGLFALDVTDPANIKLLWEIGVDQEPDLGYSFPKPTVARLHNGKWAVVTGNGYSSLNDKAALLIIDLETGAITRKLEVTGRTGVPNGLSSPRLADNNSDGVADYAYAGDLQGNLWRFDLIAGKVNQDDPFSRANDGPAVASSFRVSFGGQPLYSAVDSAGAAQAITAAPSLVRHPTRKGYIVIFGTGKYFENADARADTSRAQTLYGIWDQQTKGEAAGSTPRLTRGNLQQQTLDLQADSTFASTARTIRIASQNPVNWLNNDGSTKQSGWYLDFMVNGTLKGEMLIEDMIAIGQVVLLQTITPNDDPCADGASNWTYGLDPYTGGRTSFTVFDLARQGVVDSKSDYSYNKQNVAVSGTEQKGLGGLTLSTNEQGNPEVCSSGECLTVNPGPNTRGRQNWRPIEGKN
For B1, the dissociation constant Kd amounted to 164 nM. This counts as sub-micromolar.

What is called Kd is the free concentration of one partner at which half of the binding sites on the other are occupied at equilibrium, for simple one-to-one binding. Read a high Kd as weaker binding.

(Values after PMC3248442 (2011).)
